The subject of one assay is flg. The assay is described as follows: Saturation (equilibrium) binding of [125I]FGF to flg-overexpressing cells, Scatchard analysis. The conditions noted are these: for binding of [125I]aFGF and [125I]bFGF at saturation to flg in presence of unlabelled ligand: 100 fold molar excess of unlabelled ligand. Also noted: species or system human. Here is the method: (§1) Bovine derived aFGF, purified as previously described (Burgess, et al., J. Biol. Chem., 260: 11389-11392 (1985)), human recombinant bFGF (a kind gift of Dr. Moscatelli) and human recombinant kFGF (a kind gift of Dr. Claudio Basilico) were radioiodinated using the protocol for Enzymobeads (BioRad). The specific activity of the radiolabelled ligand was determined by radioisotope dilution using the respective unlabelled competitsr. The concentrations of the unlabelled ligands were determined by amino acid analysis (Jaye, et al., 1987 supra). The specific activity of the different preparations of [^125 I]aFGF varied between 130,000-760,000 cpm/ng and the specific activity for [^125 I]bFGF between 50,000-500,000 cpm/ng. The specific activity of [^125 I]kFGF varied from 50,000-200,000 cpm/ng. The binding assay was performed as follows: Fibronectin-coated 24 well dishes containing 1×10^5 cells/well were placed on ice, and the wells were rinsed twice with cold binding buffer (DMEM, 1 mg/ml BSA, 5 U/ml heparin, 50 mM Hepes, pH 7.4). Dishes were incubated on ice with 1 ml of ice cold binding buffer for 20 minutes, followed by 2 hours at 4° C. with serial dilutions of the [^125 I]FGF in cold binding buffer without heparin. Nonspecific binding was obtained using the same serial dilutions but in the presence of 100 fold molar excess of non-radioactive aFGF. After incubation, the cells were placed on-ice and rinsed twice with ice cold binding buffer minus heparin and then solubilized in 0.3N NaOH 37° C., 15 minutes. When [^125 I]bFGF was used the cells were placed on ice after incubation, washed three times with PBS, twice with 1 ml 2M NaCl in 20 mM Hepes, pH 7.5 and twice with 1 ml 2M NaCl in 20 mM sodium acetate, pH 4.0. The radioactivity released by the acid 2M NaCl wash represents specific binding to high affinity sites (Moscatelli, J. Cell. Physiol., 131: 123-130 (1987)). Acidic and basic FGF were radioiodinated and purified on heparin-Sepharose as described above. The dissociation constants of bek and fiq for aFGF and bFGF were established by saturation binding analysis of the overexpressing cell lines with the iodinated ligands. Binding of both aFGF and bFGF to bek and flg was specific and saturable (FIG. 6A, inserts). […] Also kFGF binds to bek with similar affinity as does bFGF but binds to flg with 4-foldless avidity than does bFGF. The data from additional experiments yield apparent Kds of aFGF for flg in the range of 20-80 pM and for bek in the range of 40-100 pM. […] The range of values probably arises from determinations of the specific activity and biological integrity of different preparations of the iodinated ligands. […] These conclusions were supported by competition (isotope dilution) experiments in which increasing amounts of nonradioactive aFGF or bFGF competed for binding with [^125 I]aFGF and [^125 I]bFGF to flg- and bek-overexpressing cells.

In the next assay the test system is bek. The assay is described as follows: Saturation (equilibrium) binding of [125I]FGF to bek-overexpressing cells, Scatchard analysis. Also noted: species or system human. As to conditions: for binding of [125I]aFGF and [125I]bFGF at saturation to bek in presence of unlabelled ligand: 100 fold molar excess of unlabelled ligand. How it is done:
as §1

Where [1] appears, read: data from additional experiments, read-out: apparent Kd for flg, range.
Setting [2] is: typical experiment, Scatchard analysis, flg-overexpressing NIH 3T3 cells (flg26), 4° C., read-out: affinity (dissociation constant) for flg.
The mark [3] stands for this setting: within any single experiment, compared to aFGF.
[4] abbreviates: data from additional experiments, read-out: apparent Kd for bek, range.
Where [5] appears, read: typical experiment, Scatchard analysis, bek-overexpressing NIH 3T3 cells (bek8; bek13 for kFGF), 4° C., read-out: affinity (dissociation constant) for bek.

Read-outs that look alike come from different tables or passages of the source.

With “bFGF: human recombinant basic fibroblast growth factor, radioiodinated for binding”, the “binding of [125I]aFGF and [125I]bFGF at saturation to flg in presence of unlabelled ligand” value in the assay with flg is “completely eliminated”. In addition, the Kd is 0.05 to 0.15 nM in the assay on flg (setting [1]), 0.047 nM in the assay on flg (setting [2]), 0.08 to 0.15 nM with bek (setting [4]) and 0.082 nM with bek (setting [5]). Moreover, the “fold lower affinity for flg compared to aFGF” value with flg (setting [3]) is “approximately 2 fold”. In addition, the “binding of [125I]aFGF and [125I]bFGF at saturation to bek in presence of unlabelled ligand” value with bek is “completely eliminated”. Besides, the “fold lower affinity for bek compared to aFGF” value with bek (setting [3]) is “approximately 2 fold”.

B1: aFGF: Bovine derived acidic fibroblast growth factor, purified, radioiodinated for binding (protein, UniProt P03968 16-155, looked up)
Fibroblast growth factor 1: FNLPLGNYKKPKLLYCSNGGYFLRILPDGTVDGTKDRSDQHIQLQLCAESIGEVYIKSTETGQFLAMDTDGLLYGSQTPNEECLFLERLEENHYNTYISKKHAEKHWFVGLKKNGRSKLGPRTHFGQKAILFLPLPVSSD
modifications: radioiodinated
Turning to B1, in the assay on flg, the “binding of [125I]aFGF and [125I]bFGF at saturation to flg in presence of unlabelled ligand” value is “completely eliminated”. Besides, the Kd with flg (setting [1]) was 0.02 to 0.08 nM; with flg (setting [2]) it was 0.024 nM; with bek (setting [4]) it was 0.04 to 0.1 nM; in the assay with bek (setting [5]), 0.047 nM. Moreover, the “binding of [125I]aFGF and [125I]bFGF at saturation to bek in presence of unlabelled ligand” value in the assay on bek is given as “completely eliminated”.

B2: kFGF: human recombinant kFGF, member of the FGF family, radioiodinated for binding (protein, UniProt P08620 31-206, looked up)
Fibroblast growth factor 4: APTAPNGTLEAELERRWESLVALSLARLPVAAQPKEAAVQSGAGDYLLGIKRLRRLYCNVGIGFHLQALPDGRIGGAHADTRDSLLELSPVERGVVSIFGVASRFFVAMSSKGKLYGSPFFTDECTFKEILLPNNYNAYESYKYPGMFIALSKNGKTKKGNRVSPTMKVTHFLPRL
modifications: radioiodinated
As to B2, in the assay on flg (compared to bFGF), the “fold less avidity for flg than bFGF” value amounted to 4 fold. Besides, the results for the Kd in the assay with flg (setting [2]) and in the assay with bek (setting [5]) were 0.32 nM and 0.08 nM, respectively.

Values taken from US5863888A, “Human Bek Fibroblast growth factor receptor” (Rhone-Poulenc Rorer Pharmaceuticals Inc., priority 1995, dated 1999).
